Source: patent US20240209106A1 (BEIGENE SWITZERLAND, published 2024)
Substitutions are numbered along the chain they refer to. Numbers in names are those of the source. Blank lines part the entries; values can stand above or below the binder they belong to.

Key:
[1] = molecular target: T1, full-length human CD137 (huCD137) (human, UniProt Q07011 24-255); assay: flow cytometry on Hut78/huCD137 cells
T1 construct: On transduced Hut78 cells (Hut78/huCD137), transiently on HEK293 cells, or natively on PBMC/T cells; also called TNFRSF9; 4-1BB

[2] = molecular target: human CD137 ECD-mIgG2a (human); assay: SPR, antibody captured on anti-human Fc surface; analyte taken as human CD137 ECD-mIgG2a
[3] = molecular target: T1, full-length human CD137 (huCD137); assay: cell-based or functional assay
[4] = molecular target: human CD137 ECD-mIgG2a (human); assay: SPR, multispecific antibody captured on anti-human IgG Fc chip, human CD137 ECD-mIgG2a flowed over
Protocol: Briefly, anti-human IgG (Fc) antibody was immobilized on an activated CM5 biosensor chip (Cat.: BR100839, GE Life Sciences). Anti-huCD137 monoclonal antibodies or multispecific antibodies were flown through the chip surface and captured by anti-human IgG (Fc) antibody. […] The equilibrium dissociation constant (KD)) was calculated as the ratio koff/kₒₙ.

T1 sequence (Q07011 24-255 limits assumed): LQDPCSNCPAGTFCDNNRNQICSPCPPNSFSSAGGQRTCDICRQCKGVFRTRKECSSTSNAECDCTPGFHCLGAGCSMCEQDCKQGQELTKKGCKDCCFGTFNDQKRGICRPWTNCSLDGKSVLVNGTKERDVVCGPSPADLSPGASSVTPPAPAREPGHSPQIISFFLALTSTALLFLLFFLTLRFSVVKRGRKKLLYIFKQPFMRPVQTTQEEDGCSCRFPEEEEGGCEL
Chain of human CD137 ECD-mIgG2a (human) (chain, as listed by the source limits assumed): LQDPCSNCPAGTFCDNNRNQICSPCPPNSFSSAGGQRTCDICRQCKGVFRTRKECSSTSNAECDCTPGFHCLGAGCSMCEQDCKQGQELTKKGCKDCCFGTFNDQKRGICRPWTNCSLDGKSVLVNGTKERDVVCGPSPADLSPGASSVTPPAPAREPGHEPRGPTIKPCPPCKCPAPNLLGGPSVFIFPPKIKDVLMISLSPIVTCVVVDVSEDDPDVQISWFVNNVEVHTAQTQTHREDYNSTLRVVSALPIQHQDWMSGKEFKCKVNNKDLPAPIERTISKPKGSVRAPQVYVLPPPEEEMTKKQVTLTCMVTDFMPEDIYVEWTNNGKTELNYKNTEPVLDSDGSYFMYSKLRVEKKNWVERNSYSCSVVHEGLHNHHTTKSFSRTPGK

binding result [1]: binds | Kd [2]: 586 nM | koff [2]: 0.00455 s⁻¹ | kon [2]: 7770 M⁻¹ s⁻¹
B1: A-CD137×CEA-M1 (bispecific antibody, human IgG1, kappa)
heavy: QVQLVQSGAEVKKPGASVKVSCKASGYIFTSYYLHWVRQAPGQGLEWIGYINPQTGKTSYAQKFQGRVTMTRDTSTSTVYMELSSLRSEDTAVYYCAREYGNYNYPLDYWGQGTLVTVSSASTKGPSVFPLAPSSKSTSGGTAALGCLVKDYFPEPVTVSWNSGALTSGVHTFPAVLQSSGLYSLSSVVTVPSSSLGTQTYICNVNHKPSNTKVDKKVEPKSCDKTHTCPPCPAPPAAGPSVFLFPPKPKDTLMISRTPEVTCVVVDVSHEDPEVKFNWYVDGVEVHNAKTKPREEQYNSTYRVVSVLTVLHQDWLNGKEYKCKVSNKALAAPIEKTISKAKGQPREPQVYTLPPSREEMTKNQVSLTCLVKGFYPSDIAVEWESNGQPENNYKTTPPVLDSDGSFFLYSKLTVDKSRWQQGNVFSCSVMHEALHNHYTQKSLSLSPGKGGGGSEVQLLESGGGLVQPGGSLRLSCAASGFTLSAEDMGWVRQAPGKGLEWVSAILDFGGSTYYAESVKGRFTISRDNAKNTLYLQMSSLRAEDTAVYYCARVVYHAGGGVTFDYWGQGTLVTVSS
light: DIQMTQSPSSLSASVGDRVTITCRASENQYGYLAWYQQKPGKVPKLLIYNYKNLVEGVPSRFSGSGSGTDFTLTISSLQPEDVATYYCQHHLGTPYTFGQGTKVEIKRTVAAPSVFIFPPSDEQLKSGTASVVCLLNNFYPREAKVQWKVDNALQSGNSQESVTEQDSKDSTYSLSSTLTLSKADYEKHKVYACEVTHQGLSSPVTKSFNRGEC

Kd [4]: 115 nM
B11: Format A - BGA-3953 (bispecific antibody, human IgG1, kappa)
heavy: B1 heavy with L483V, M488V, F508S, V553I, Y565T, W566R, L571Q
light: B1 light
notes: Light chain by the description of Format A

Kd [4]: 245 nM
B12: Format A - BGA-7746 (bispecific antibody, human IgG1, kappa)
heavy: B1 heavy with L483V, M488V, Y565T, W566R, L571Q
light: B1 light
notes: as for B11

binding result [1]: binds | Kd [2]: 194 nM | koff [2]: 0.0247 s⁻¹ | kon [2]: 127000 M⁻¹ s⁻¹
B16: A-CD137×CEA-M4 (bispecific antibody, human IgG1, kappa)
heavy: B1 heavy with F481R, M488V
light: B1 light

Kd [4]: 189 nM
B17: Format A - BGA-8425 (bispecific antibody, human IgG1, kappa)
heavy: B1 heavy with M488V, F508S, F563Y, W566R, L571Q
light: B1 light
notes: as for B11

Kd [4]: 873 nM
B18: Format A - BGA-9468 (bispecific antibody, human IgG1, kappa)
heavy: B1 heavy with L483V, M488V, F508S, A557S, Y565L, W566R, L571Q
light: B1 light
notes: as for B11

Kd [4]: 154 nM
B19: Format A - BGA-5385 (bispecific antibody, human IgG1, kappa)
heavy: B1 heavy with M488V, F508H, V554I, Y565T, W566R, L571Q
light: B1 light
notes: as for B11

Continued, binder first:

B2: BE-942 (ZW 1+1) (bispecific antibody, human IgG1, L234A L235A)
heavy 1: QVQLVQSGAEVKKPGASVKVSCKASGYIFTSYYLHWVRQAPGQGLEWIGYINPQTGKTSYAQKFQGRVTMTRDTSTSTVYMELSSLRSEDTAVYYCAREYGNYNYPLDYWGQGTLVTVSSASTKGPSVFPLAPSSKSTSGGTAWLGCEVTDYFPEPVTVSWNSGALTSGVHTFPAVLESSGLYSLSSVVTVPSSSLGTQTYICNVNHKPSNTKVDKKVEPKSCDKTHTCPPCPAPEAAGGPSVFLFPPKPKDTLMISRTPEVTCVVVSVSHEDPEVKFNWYVDGVEVHNAKTKPREEQYNSTYRVVSVLTVLHQDWLNGKEYKCKVSNKALPAPIEKTISKAKGQPREPQVYVLPPSRDELTKNQVSLLCLVKGFYPSDIAVEWESNGQPENNYLTWPPVLDSDGSFFLYSKLTVDKSRWQQGNVFSCSVMHEALHNHYTQKSLSLSPGK
light: B1 light with F116A, Q124R, L135V, T178R
heavy 2: not shown
Functional assay EC50 (ug/ml), in vitro CD137 activation (PBMC cytokine release) [3]: 25.1 µg/mL

B3: BE-718 (A-BGA-5623-BGA-5623) (bispecific antibody, human IgG1, kappa)
heavy: QVQLVQSGAEVKKPGASVKVSCKASGYIFTSYYLHWVRQAPGQGLEWIGYINPQTGKTSYAQKFQGRVTMTRDTSTSTVYMELSSLRSEDTAVYYCAREYGNYNYPLDYWGQGTLVTVSSASTKGPSVFPLAPSSKSTSGGTAALGCLVKDYFPEPVTVSWNSGALTSGVHTFPAVLQSSGLYSLSSVVTVPSSSLGTQTYICNVNHKPSNTKVDKKVEPKSCDKTHTCPPCPAPPAAGPSVFLFPPKPKDTLMISRTPEVTCVVVDVSHEDPEVKFNWYVDGVEVHNAKTKPREEQYNSTYRVVSVLTVLHQDWLNGKEYKCKVSNKALAAPIEKTISKAKGQPREPQVYTLPPSREEMTKNQVSLTCLVKGFYPSDIAVEWESNGQPENNYKTTPPVLDSDGSFFLYSKLTVDKSRWQQGNVFSCSVMHEALHNHYTQKSLSLSPGKGGGGSEVQLLESGGGLVQPGGSLRLSCAASGFTVSAEDVGWVRQAPGKGLEWVSAILDKGGSTYYAESVKGRFTISRDNAKNTLYLQMSSLRAEDTAVYYCARIVYHAGGGVTFDTRGQGTQVTVSSGGGGSEVQLLESGGGLVQPGGSLRLSCAASGFTVSAEDVGWVRQAPGKGLEWVSAILDKGGSTYYAESVKGRFTISRDNAKNTLYLQMSSLRAEDTAVYYCARIVYHAGGGVTFDTRGQGTQVTVSS
light: B1 light
Functional assay EC50 (ug/ml), in vitro CD137 activation (PBMC cytokine release) [3]: 0.01 µg/mL

B4: BE-375 (E-IgG1-BGA-5623) (bispecific antibody)
heavy: not shown
light: B1 light
Functional assay EC50 (ug/ml), in vitro CD137 activation (PBMC cytokine release) [3]: 1.76 µg/mL

B5: BE-562 (E-muFc-BGA-5623) (bispecific antibody)
heavy: EVQLLESGGGLVQPGGSLRLSCAASGFTVSAEDVGWVRQAPGKGLEWVSAILDKGGSTYYAESVKGRFTISRDNAKNTLYLQMSSLRAEDTAVYYCARIVYHAGGGVTFDTRGQGTQVTVSSEPKSSDKTHTCPPCPAPPAAGPSVFLFPPKPKDTLMISRTPEVTCVVVDVSHEDPEVKFNWYVDGVEVHNAKTKPREEQYNSTYRVVSVLTVLHQDWLNGKEYKCKVSNKALAAPIEKTISKAKGQPREPQVYTLPPSREEMTKNQVSLTCLVKGFYPSDIAVEWESNGQPENNYKTTPPVLDSDGSFFLYSKLTVDKSRWQQGNVFSCSVMHEALHNHYTQKSLSLSPGKGGGGSQVQLVQSGAEVKKPGASVKVSCKASGYIFTSYYLHWVRQAPGQGLEWIGYINPQTGKTSYAQKFQGRVTMTRDTSTSTVYMELSSLRSEDTAVYYCAREYGNYNYPLDYWGQGTLVTVSSASTKGPSVFPLAPSSKSTSGGTAALGCLVKDYFPEPVTVSWNSGALTSGVHTFPAVLQSSGLYSLSSVVTVPSSSLGTQTYICNVNHKPSNTKVDKKVEPKSCD
light: B1 light
Functional assay EC50 (ug/ml), in vitro CD137 activation (PBMC cytokine release) [3]: 4.69 µg/mL

B6: BE-740 (A-IgG1-BGA-5623) (bispecific antibody)
heavy: not shown
light: B1 light
Functional assay EC50 (ug/ml), in vitro CD137 activation (PBMC cytokine release) [3]: 0.17 µg/mL

B7: BE-755 (ZW1+2) (bispecific antibody, human IgG1, L234A L235A)
heavy 1: B2 heavy 1
light: B1 light with F116A, Q124R, L135V, T178R
heavy 2: not shown
Functional assay EC50 (ug/ml), in vitro CD137 activation (PBMC cytokine release) [3]: 1.16 µg/mL

B8: BE-244 (A-(G4S)3-BGA-5623) (bispecific antibody, human IgG1, kappa)
heavy: QVQLVQSGAEVKKPGASVKVSCKASGYIFTSYYLHWVRQAPGQGLEWIGYINPQTGKTSYAQKFQGRVTMTRDTSTSTVYMELSSLRSEDTAVYYCAREYGNYNYPLDYWGQGTLVTVSSASTKGPSVFPLAPSSKSTSGGTAALGCLVKDYFPEPVTVSWNSGALTSGVHTFPAVLQSSGLYSLSSVVTVPSSSLGTQTYICNVNHKPSNTKVDKKVEPKSCDKTHTCPPCPAPPAAGPSVFLFPPKPKDTLMISRTPEVTCVVVDVSHEDPEVKFNWYVDGVEVHNAKTKPREEQYNSTYRVVSVLTVLHQDWLNGKEYKCKVSNKALAAPIEKTISKAKGQPREPQVYTLPPSREEMTKNQVSLTCLVKGFYPSDIAVEWESNGQPENNYKTTPPVLDSDGSFFLYSKLTVDKSRWQQGNVFSCSVMHEALHNHYTQKSLSLSPGKGGGGSGGGGSGGGGSEVQLLESGGGLVQPGGSLRLSCAASGFTVSAEDVGWVRQAPGKGLEWVSAILDKGGSTYYAESVKGRFTISRDNAKNTLYLQMSSLRAEDTAVYYCARIVYHAGGGVTFDTRGQGTQVTVSS
light: B1 light
Functional assay EC50 (ug/ml), in vitro CD137 activation (PBMC cytokine release) [3]: 0.18 µg/mL

B9: A-CD137×CEA-M7 (bispecific antibody, human IgG1, kappa)
heavy: B1 heavy with M488V, E516D
light: B1 light
EC50 (read off the curve) [1]: ~0.1 µg/mL | Kd [2]: 266 nM | koff [2]: 0.003 s⁻¹ | kon [2]: 11300 M⁻¹ s⁻¹

B10: A-CD137×CEA-M2 (bispecific antibody)
heavy: B1 heavy with F481R
light: B1 light
notes: V35M as printed
EC50 (read off the curve) [1]: ~2 µg/mL | Kd [2]: 232 nM | koff [2]: 0.0105 s⁻¹ | kon [2]: 45200 M⁻¹ s⁻¹

B13: A-CD137×CEA-M5 (bispecific antibody)
heavy: B1 heavy with E516D
light: B1 light
notes: V35M as printed
EC50 (read off the curve) [1]: ~2 µg/mL | Kd [2]: 646 nM | koff [2]: 0.00574 s⁻¹ | kon [2]: 8890 M⁻¹ s⁻¹

B14: Format A - BGA-3285 (bispecific antibody, human IgG1, kappa)
heavy: B1 heavy with L483I, M488V, Y565T, W566R, L571Q
light: B1 light
notes: as for B11
Kd [4]: 798 nM

B15: A-CD137×CEA-M6 (bispecific antibody)
heavy: B1 heavy with F481R, E516D
light: B1 light
notes: V35M as printed
EC50 (read off the curve) [1]: ~2 µg/mL | Kd [2]: 767 nM | koff [2]: 0.0114 s⁻¹ | kon [2]: 14800 M⁻¹ s⁻¹
